Assay in all cases: cell-based or functional assay
In one assay the target is NEM-huIL-18 (human) (UniProt Q14116).
The next assay deals with (4C/A)-huIL-18 (human) (UniProt Q14116).
The target in assay [1] is natural human IL-18 (human) (UniProt Q14116).

B1: 268 (antibody, V domains shown)
VH: ZVQLVESGGGVVQPGRSLRLSCAASGFTFRNYGLHWVRQAPGKGLEWVAVIWYDGSNKYYADSVKGRFTISRDNSKNTLYLQMNSLRAEDTAVYYCARESYYYYGMDVWGQGTTVTVSS
VL: EIVMTQSPATLSVSPGERATLSCRASQSFNSNLVWYQQKPGQAPRLLIYGASTRATGIPARFSGSGSGTEFTLTISSLQSEDFAVYYCQQYNNWTWTFGQGTKVEIKR
Consider B1, for which the KG-1 Assays (IC50, M) in the assay with NEM-huIL-18 (human) came out at 7e-09 M.

B2: Murine anti-human IL-18 mAb (125-2H) (antibody, from another filing, V domains shown)
VH: EIQLQQSGPELVKPGASVKVSCKASGYSFTDYFIYWVKQSHGKSLEWIGDIDPYNGDTSYNQKFRDKATLTVDQSSTTAFMHLNSLTSEDSAVYFCARGLRFWGQGTLVTVSA
VL: DIQMTQSPSSLSASLGERVSLTCRASQDIGSKLYWLQQEPDGTFKRLIYATSSLDSGVPKRFSGSRSGSDYSLTISSLESEDFVDYYCLQYASSPYTFGGGTKLAIKR
For B2, the KG-1 neutralization potency in vitro (IC50, nM) with (4C/A)-huIL-18 (human) turned out to be 0.2 nM. Further, the WBA neutralization potency in vitro (IC50, nM) in assay [1] came out at 3 nM.

For the origin of these results see US20100291088A1.
